Laboratory results from the supplement of paper PMC5998384.

Assays:
[1] = test system: HeLa Kyoto; assay: melting temperature (median over replicates), in situ; higher = more thermally stable
[2] = test system: HeLa Kyoto; assay: solubility change mitosis vs G1/S (difference of NP-40 vs SDS log2 ratios) (log2 ratio difference); higher = more soluble in mitosis
[3] = test system: HeLa Kyoto; assay: solubility in G1/S (NP-40 vs SDS abundance) (log2 ratio); higher = more soluble; conditions: cell cycle stage: G1/S
[4] = test system: HeLa Kyoto; assay: thermal stability score vs G1/S (z-score of summed log2 fold changes over temperatures); higher = more thermally stable than in G1/S
[5] = cell cycle stage: early G1 (4.5 h after nocodazole release)
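Throughout, for melting temperature (median over replicates), in situ: HeLa Kyoto cells synchronized by double thymidine or nocodazole block, proteins quantified by TMT10plex mass spectrometry, three independent biological replicates.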
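Throughout, for solubility change mitosis vs G1/S (difference of NP-40 vs SDS log2 ratios): synchronized HeLa Kyoto cells (double thymidine block for G1/S, nocodazole release for mitosis), protein amounts in NP-40 versus SDS lysates quantified by mass spectrometry, three biological replicates.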
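Throughout, for solubility in G1/S (NP-40 vs SDS abundance): HeLa Kyoto cells arrested at G1/S by double thymidine block, proteins quantified by TMT10plex mass spectrometry in mild NP-40 versus SDS extracts, three biological replicates.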
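Throughout, for thermal stability score vs G1/S (z-score of summed log2 fold changes over temperatures): synchronized HeLa Kyoto cells, proteins quantified by TMT10plex mass spectrometry, three biological replicates, mitosis taken 0.5 h after nocodazole release, G1/S directly after double thymidine block.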

Row | Substance | melting temperature ([1]; cell cycle stage: G1/S) [°C] | melting temperature ([1]; cell cycle stage: mitosis) [°C] | solubility change mitosis (log2) [2] | solubility in G1/S (log2) [3] | thermal stability score [4, 5] | thermal stability score ([4]; cell cycle stage: mitosis)
1 | MAASTGYVRLWGAARCWVLRRPMLAAAGGRVPTAAGAWLLRGQRTCDASPPWALWGRGPAIGGQWRGFWEASSRGGGAFSGGEDASEGGAEEGAGGAGGSAGAGEGPVITALTPMTIPDVFPHLPLIAITRNPVFPRFIKIIEVKNKKLVELLRRKVRLAQPYVGVFLKRDDSNESDVVESLDEIYHTGTFAQIHEMQDLGDKLRMIVMGHRRVHISRQLEVEPEEPEAENKHKPRRKSKRGKKEAEDELSARHPAELAMEPTPELPAEVLMVEVENVVHEDFQVTEEVKALTAEIVKTIRDIIALNPLYRESVLQMMQAGQRVVDNPIYLSDMGAALTGAESHELQDVLEETNIPKRLYKALSLLKKEFELSKLQQRLGREVEEKIKQTHRKYLLQEQLKIIKKELGLEKDDKDAIEEKFRERLKELVVPKHVMDVVDEELSKLGLLDNHSSEFNVTRNYLDWLTSIPWGKYSNENLDLARAQAVLEEDHYGMEDVKKRILEFIAVSQLRGSTQGKILCFYGPPGVGKTSIARSIARALNREYFRFSVGGMTDVAEIKGHRRTYVGAMPGKIIQCLKKTKTENPLILIDEVDKIGRGYQGDPSSALLELLDPEQNANFLDHYLDVPVDLSKVLFICTANVTDTIPEPLRDRMEMINVSGYVAQEKLAIAERYLVPQARALCGLDESKAKLSSDVLTLLIKQYCRESGVRNLQKQVEKVLRKSAYKIVSGEAESVEVTPENLQDFVGKPVFTVERMYDVTPPGVVMGLAWTAMGGSTLFVETSLRRPQDKDAKGDKDGSLEVTGQLGEVMKESARIAYTFARAFLMQHAPANDYLVTSHIHLHVPEGATPKDGPSAGCTIVTALLSLAMGRPVRQNLAMTGEVSLTGKILPVGGIKEKTIAAKRAGVTCIVLPAENKKDFYDLAAFITEGLEVHFVEHYREIFDIAFPDEQAEALAVER [LONP1] | 54.4 | 53.6 | -0.0806 | 0.12 | -0.58 | -1.35
2 | MDAPKAGYAFEYLIETLNDSSHKKFFDVSKLGTKYDVLPYSIRVLLEAAVRNCDGFLMKKEDVMNILDWKTKQSNVEVPFFPARVLLQDFTGIPAMVDFAAMREAVKTLGGDPEKVHPACPTDLTVDHSLQIDFSKCAIQNAPNPGGGDLQKAGKLSPLKVQPKKLPCRGQTTCRGSCDSGELGRNSGTFSSQIENTPILCPFHLQPVPEPETVLKNQEVEFGRNRERLQFFKWSSRVFKNVAVIPPGTGMAHQINLEYLSRVVFEEKDLLFPDSVVGTDSHITMVNGLGILGWGVGGIETEAVMLGLPVSLTLPEVVGCELTGSSNPFVTSIDVVLGITKHLRQVGVAGKFVEFFGSGVSQLSIVDRTTIANMCPEYGAILSFFPVDNVTLKHLEHTGFSKAKLESMETYLKAVKLFRNDQNSSGEPEYSQVIQINLNSIVPSVSGPKRPQDRVAVTDMKSDFQACLNEKVGFKGFQIAAEKQKDIVSIHYEGSEYKLSHGSVVIAAVISCTNNCNPSVMLAAGLLAKKAVEAGLRVKPYIRTSLSPGSGMVTHYLSSSGVLPYLSKLGFEIVGYGCSICVGNTAPLSDAVLNAVKQGDLVTCGILSGNKNFEGRLCDCVRANYLASPPLVVAYAIAGTVNIDFQTEPLGTDPTGKNIYLHDIWPSREEVHRVEEEHVILSMFKALKDKIEMGNKRWNSLEAPDSVLFPWDLKSTYIRCPSFFDKLTKEPIALQAIENAHVLLYLGDSVTTDHISPAGSIARNSAAAKYLTNRGLTPREFNSYGARRGNDAVMTRGTFANIKLFNKFIGKPAPKTIHFPSGQTLDVFEAAELYQKEGIPLIILAGKKYGSGNSRDWAAKGPYLLGVKAVLAESYEKIHKDHLIGIGIAPLQFLPGENADSLGLSGRETFSLTFPEELSPGITLNIQTSTGKVFSVIASFEDDVEITLYKHGGLLNFVARKFS [IREB2] | 50.6 | 49.8 | 0.0731 | 0.000606 | -0.342 | -0.0931
3 | MPVKGGTKCIKYLLFGFNFIFWLAGIAVLAIGLWLRFDSQTKSIFEQETNNNNSSFYTGVYILIGAGALMMLVGFLGCCGAVQESQCMLGLFFGFLLVIFAIEIAAAIWGYSHKDEVIKEVQEFYKDTYNKLKTKDEPQRETLKAIHYALNCCGLAGGVEQFISDICPKKDVLETFTVKSCPDAIKEVFDNKFHIIGAVGIGIAVVMIFGMIFSMILCCAIRRNREMV [CD9] | 62.4 | 60.4 | -0.149 | -0.0106 | 2.82 | 0.357
4 | BIRC6 | 51.6 | 51.2 | -0.125 | -0.141 | -0.354 | -0.341
5 | CLTCL1 | 50.8 | 49.8 | -0.0594 | -0.305 | 0.282 | 0.64
6 | MAAAAELSLLEKSLGLSKGNKYSAQGERQIPVLQTNNGPSLTGLTTIAAHLVKQANKEYLLGSTAEEKAIVQQWLEYRVTQVDGHSSKNDIHTLLKDLNSYLEDKVYLTGYNFTLADILLYYGLHRFIVDLTVQEKEKYLNVSRWFCHIQHYPGIRQHLSSVVFIKNRLYTNSH [EEF1E1] | 48.6 | 49.7 | 0.0967 | 0.394 | -0.612 | -0.172
7 | MKPSGEDQAALAAGPWEECFQAAVQLALRAGQIIRKALTEEKRVSTKTSAADLVTETDHLVEDLIISELRERFPSHRFIAEEAAASGAKCVLTHSPTWIIDPIDGTCNFVHRFPTVAVSIGFAVRQELEFGVIYHCTEERLYTGRRGRGAFCNGQRLRVSGETDLSKALVLTEIGPKRDPATLKLFLSNMERLLHAKAHGVRVIGSSTLALCHLASGAADAYYQFGLHCWDLAAATVIIREAGGIVIDTSGGPLDLMACRVVAASTREMAMLIAQALQTINYGRDDEK [IMPA2] | 58.2 | 60.1 | -0.261 | 0.109 | -0.528 | -0.16
8 | MAAQQRDCGGAAQLAGPAAEADPLGRFTCPVCLEVYEKPVQVPCGHVFCSACLQECLKPKKPVCGVCRSALAPGVRAVELERQIESTETSCHGCRKNFFLSKIRSHVATCSKYQNYIMEGVKATIKDASLQPRNVPNRYTFPCPYCPEKNFDQEGLVEHCKLFHSTDTKSVVCPICASMPWGDPNYRSANFREHIQRRHRFSYDTFVDYDVDEEDMMNQVLQRSIIDQ [RNF114] | 53.2 | 53.8 | 0.0396 | 0.162 | -2.47 | -2.4
9 | MWRLVPPKLGRLSRSLKLAALGSLLVLMVLHSPSLLASWQRNELTDRRFLQLNKCPACFGTSWCRRFLNGQVVFEAWGRLRLLDFLNVKNVYFAQYGEPREGGRRRVVLKRLGSQRELAQLDQSICKRATGRPRCDLLQAMPRTEFARLNGDVRLLTPEAVEGWSDLVHCPSQRLLDRLVRRYAETKDSGSFLLRNLKDSERMQLLLTLAFNPEPLVLQSFPSDEGWPFAKYLGACGRMVAVNYVGEELWSYFNAPWEKRVDLAWQLMEIAEQLTNNDFEFALYLLDVSFDNFAVGPRDGKVIIVDAENVLVADKRLIRQNKPENWDVWYESKFDDCDKEACLSFSKEILCARATVDHNYYAVCQNLLSRHATWRGTSGGLLHDPPSEIAKDGRLEALLDECANPKKRYGRFQAAKELREYLAQLSNNVR [C3ORF58] | 53 | 52.3 | -0.109 | 0.0343 | -0.149 | -0.787
10 | MAAIRMGKLTTMPAGLIYASVSVHAAKQEESKKQLVKPEQLPIYTAPPLQSKYVEEQPGHLQMGFASIRTATGCYIGWCKGVYVFVKNGIMDTVQFGKDAYVYLKNPPRDFLPKMGVITVSGLAGLVSARKGSKFKKITYPLGLATLGATVCYPVQSVIIAKVTAKKVYATSQQIFGAVKSLWTKSSKEESLPKPKEKTKLGSSSEIEVPAKTTHVLKHSVPLPTELSSEAKTKSESTSGATQFMPDPKLMDHGQSHPEDIDMYSTRS [APOOL] | 53.9 | 57.3 | -0.104 | 0.166 | -1.29 | -2.35
11 | MAQHFSLAACDVVGFDLDHTLCRYNLPESAPLIYNSFAQFLVKEKGYDKELLNVTPEDWDFCCKGLALDLEDGNFLKLANNGTVLRASHGTKMMTPEVLAEAYGKKEWKHFLSDTGMACRSGKYYFYDNYFDLPGALLCARVVDYLTKLNNGQKTFDFWKDIVAAIQHNYKMSAFKENCGIYFPEIKRDPGRYLHSCPESVKKWLRQLKNAGKILLLITSSHSDYCRLLCEYILGNDFTDLFDIVITNALKPGFFSHLPSQRPFRTLENDEEQEALPSLDKPGWYSQGNAVHLYELLKKMTGKPEPKVVYFGDSMHSDIFPARHYSNWETVLILEELRGDEGTRSQRPEESEPLEKKGKYEGPKAKPLNTSSKKWGSFFIDSVLGLENTEDSLVYTWSCKRISTYSTIAIPSIEAIAELPLDYKFTRFSSSNSKTAGYYPNPPLVLSSDETLISK [NT5DC1] | 55.5 | 55.7 | -0.212 | 0.0982 | 0.00809 | -0.565
12 | MLSAASRVVSRAAVHCALRSPPPEARALAMSRPPPPRVASVLGTMEMGRRMDAPASAAAVRAFLERGHTELDTAFMYSDGQSETILGGLGLGLGGGDCRVKIATKANPWDGKSLKPDSVRSQLETSLKRLQCPQVDLFYLHAPDHGTPVEETLHACQRLHQEGKFVELGLSNYASWEVAEICTLCKSNGWILPTVYQGMYNATTRQVETELFPCLRHFGLRFYAYNPLAGGLLTGKYKYEDKDGKQPVGRFFGNSWAETYRNRFWKEHHFEAIALVEKALQAAYGASAPSVTSAALRWMYHHSQLQGAHGDAVILGMSSLEQLEQNLAATEEGPLEPAVVDAFNQAWHLVAHECPNYFR [AKR7A2] | 53.1 | 53.1 | -0.121 | 0.438 | 0.491 | 0.31
13 | MAGKSSLFKVILLGDGGVGKSSLMNRYVTNKFDTQLFHTIGVEFLNKDLEVDGHFVTMQIWDTAGQERFRSLRTPFYRGSDCCLLTFSVDDSQSFQNLSNWKKEFIYYADVKEPESFPFVILGNKIDISERQVSTEEAQAWCRDNGDYPYFETSAKDATNVAAAFEEAVRRVLATEDRSDHLIQTDTVNLHRKPKPSSSCC [RAB9A] | 54.3 | 54.2 | -0.207 | -0.0893 | -1.81 | -3.52
14 | MVAVLGGRGVLRLRLLLSALKPGIHVPRAGPAAAFGTSVTSAKVAVNGVQLHYQQTGEGDHAVLLLPGMLGSGETDFGPQLKNLNKKLFTVVAWDPRGYGHSRPPDRDFPADFFERDAKDAVDLMKALKFKKVSLLGWSDGGITALIAAAKYPSYIHKMVIWGANAYVTDEDSMIYEGIRDVSKWSERTRKPLEALYGYDYFARTCEKWVDGIRQFKHLPDGNICRHLLPRVQCPALIVHGEKDPLVPRFHADFIHKHVKGSRLHLMPEGKHNLHLRFADEFNKLAEDFLQ [BPHL] | 52.7 | 52.4 | -0.00389 | 0.0569 | 0.683 | 0.206
15 | MAAALLARASGPARRALCPRAWRQLHTIYQSVELPETHQMLLQTCRDFAEKELFPIAAQVDKEHLFPAAQVKKMGGLGLLAMDVPEELGGAGLDYLAYAIAMEEISRGCASTGVIMSVNNSLYLGPILKFGSKEQKQAWVTPFTSGDKIGCFALSEPGNGSDAGAASTTARAEGDSWVLNGTKAWITNAWEASAAVVFASTDRALQNKGISAFLVPMPTPGLTLGKKEDKLGIRGSSTANLIFEDCRIPKDSILGEPGMGFKIAMQTLDMGRIGIASQALGIAQTALDCAVNYAENRMAFGAPLTKLQVIQFKLADMALALESARLLTWRAAMLKDNKKPFIKEAAMAKLAASEAATAISHQAIQILGGMGYVTEMPAERHYRDARITEIYEGTSEIQRLVIAGHLLRSYRS [ACADS] | 55.3 | 53.9 | -0.159 | 0.191 | -1.85 | -3.37
16 | MARYEEVSVSGFEEFHRAVEQHNGKTIFAYFTGSKDAGGKSWCPDCVQAEPVVREGLKHISEGCVFIYCQVGEKPYWKDPNNDFRKNLKVTAVPTLLKYGTPQKLVESECLQANLVEMLFSED [TXNDC17] | 50.8 | 51.6 | -0.128 | 0.304 | 4.94 | 2.6
